Test system: CD45+ leukocyte cells (macrophages, monocytes, lymphocytes, granulocytes)
Assay: Uptake of iron binding proteins by CD45+ leukocyte cells in culture
Assay type: cell-based, mouse
Settings: incubation 1-4 hrs, 0.1-0.2 mg/ml protein solution, standard culture conditions; FIG. 5
Procedure: (§1) Obtained cells are incubated in ferritin solution for a time and at the concentration sufficient to ensure proper ratio of ferritin/cell for their full load and also to ensure proper contrast content to obtain proper imaging). The time and concentration may vary depending on the number of molecules encapsulated/adsorbed into the ferritin cage, status of cell activation, condition and number of their intended administration.
For example, to ensure proper load with ferritins, cells are incubated for 1-4 hrs in ferritin solution 0.2 mg/ml in standard culture conditions. The frame of ferritin concentration may vary at least between 0.01 and 4 mg/ml as well as incubation time (5 min-6 hrs or more). Adjusting time and concentration of ferritin load to cells, the influence of ferritin and treatment conditions on cell viability should be minded.
as §1, with “haemoglobin” for “ferritin”, “haemoglobin/cell” for “ferritin/cell”, “imaging.” for “imaging).”, “linked with” for “encapsulated/adsorbed into”, “haemoglobin molecule,” for “ferritin cage,”, “administration. […]” for “administration.”

B1: ferritins: recombinant mouse ferritin protein of SEQ ID NO: 4 expressed in E. coli (protein)
chain: MTTASPSQVRQNYHQDAEAAINRQINLELYASYVYLSMSCYFDRDDVALKNFAKYFLHQSHEEREHAEKLMKLQNQRGGRIFLQDIKKPDRDDWESGLNAMECALHLEKSVNQSLLELHKLATDKNDPHLCDFIETYYLSEQVKSIKELGDHVTNLRKMGAPEAGMAEYLFDKHTLGHGD
  uptake of iron binding protein by cells: very easily uptake

From US12485192B2, “Cellular targeted label delivery system” (CELLIS AG, priority 2016, dated 2025)
